# Data: patent US20180291353A1, “MONOFUNCTIONAL ALDEHYDE AND ALCOHOL DEHYDROGENASES FOR PRODUCTION OF FUELS AND COMMODITY CHEMICALS” (The Regents of the University of California, priority 2015, published 2018)
# B1: AdhE2-ADH (alcohol dehydrogenase domain of bifunctional AdhE2, wild type, GI 499193180, SEQ ID NO: 41) (Clostridium acetobutylicum) (protein)
# chain: MKVTNQKELKQKLNELREAQKKFATYTQEQVDKIFKQCAIAAAKERINLAKLAVEETGIGLVEDKIIKNHFAAEYIYNKYKNEKTCGIIDHDDSLGITKVAEPIGIVAAIVPTTNPTSTAIFKSLISLKTRNAIFFSPHPRAKKSTIAAAKLILDAAVKAGAPKNIIGWIDEPSIELSQDLMSEADIILATGGPSMVKAAYSSGKPAIGVGAGNTPAIIDESADIDMAVSSIILSKTYDNGVICASEQSILVMNSIYEKVKEEFVKRGSYILNQNEIAKIKETMFKNGAINADIVGKSAYIIAKMAGIEVPQTTKILIGEVQSVEKSELFSHEKLSPVLAMYKVKDFDEALKKAQRLIELGGSGHTSSLYIDSQNNKDKVKEFGLAMKTSRTFINMPSSQGASGDLYNFAIAPSFTLGCGTWGGNSVSQNVEPKHLLNIKSVAERRENMLWFKVPQKIYFKYGCLRFALKELKDMNKKRAFIVTDKDLFKLGYVNKITKVLDEIDIKYSIFTDIKSDPTIDSVKKGAKEMLNFEPDTIISIGGGSPMDAAKVMHLLYEYPEAEIENLAINFMDIRKRICNFPKLGTKAISVAIPTTAGTGSEATPFAVITNDETGMKYPLTSYELTPNMAIIDTELMLNMPRKLTAATGIDALVHAIEAYVSVMATDYTDELALRAIKMIFKYLPRAYKNGTNDIEAREKMAHASNIAGMAFANAFLGVCHSMAHKLGAMHHVPHGIACAVLIEEVIKYNATDCPTKQTAFPQYKSPNAKRKYAEIAEYLNLKGTSDTEKVTALIEAISKLKIDLSIPQNISAAGINKKDFYNTLDKMSELAFDDQCTTANPRYPLISELKDIYIKSF
# notes: alcohol dehydrogenase activity (C-terminal domain) measured
# B2: AdhE2: bifunctional alcohol and aldehyde dehydrogenase, wild-type AdhE2 (protein, listed as Clostridium acetobutylicum)
# chain: MKVTNQKELKQKLNELREAQKKFATYTQEQVDKIFKQCAIAAAKERINLAKLAVEETGIGLVEDKIIKNHFAAEYIYNKYKNEKTCGIIDHDDSLGITKVAEPIGIVAAIVPTTNPTSTAIFKSLISLKTRNAIFFSPHPRAKKSTIAAAKLILDAAVKAGAPKNIIGWIDEPSIELSQDLMSEADIILATGGPSMVKAAYSSGKPAIGVGAGNTPAIIDESADIDMAVSSIILSKTYDNGVICASEQSILVMNSIYEKVKEEFVKRGSYILNQNEIAKIKETMFKNGAINADIVGKSAYIIAKMAGIEVPQTTKILIGEVQSVEKSELFSHEKLSPVLAMYKVKDFDEALKKAQRLIELGGSGHTSSLYIDSQNNKDKVKEFGLAMKTSRTFINMPSSQGASGDLYNFAIAPSFTLGCGTWGGNSVSQNVEPKHLLNIKSVAERRENMLWFKVPQKIYFKYGCLRFALKELKDMNKKRAFIVTDKDLFKLGYVNKITKVLDEIDIKYSIFTDIKSDPTIDSVKKGAKEMLNFEPDTIISIGGGSPMDAAKVMHLLYEYPEAEIENLAINFMDIRKRICNFPKLGTKAISVAIPTTAGTGSEATPFAVITNDETGMKYPLTSYELTPNMAIIDTELMLNMPRKLTAATGIDALVHAIEAYVSVMATDYTDELALRAIKMIFKYLPRAYKNGTNDIEAREKMAHASNIAGMAFANAFLGVCHSMAHKLGAMHHVPHGIACAVLIEEVIKYNATDCPTKQTAFPQYKSPNAKRKYAEIAEYLNLKGTSDTEKVTALIEAISKLKIDLSIPQNISAAGINKKDFYNTLDKMSELAFDDQCTTANPRYPLISELKDIYIKSF
# Legend:
# [1] = target: T1, AdhE2-ADH (alcohol dehydrogenase domain of bifunctional AdhE2, wild type, GI 499193180, SEQ ID NO: 41) (Clostridium acetobutylicum, UniProt Q9ANR5); test: In vitro kinetics of aldehyde/alcohol dehydrogenases, oxidation of NADH at 340 nm (alcohol dehydrogenase domain of AdhE2); assay type: biochemical
# T1 construct: alcohol dehydrogenase activity (C-terminal domain) measured
# T1 sequence (Q9ANR5 1-858): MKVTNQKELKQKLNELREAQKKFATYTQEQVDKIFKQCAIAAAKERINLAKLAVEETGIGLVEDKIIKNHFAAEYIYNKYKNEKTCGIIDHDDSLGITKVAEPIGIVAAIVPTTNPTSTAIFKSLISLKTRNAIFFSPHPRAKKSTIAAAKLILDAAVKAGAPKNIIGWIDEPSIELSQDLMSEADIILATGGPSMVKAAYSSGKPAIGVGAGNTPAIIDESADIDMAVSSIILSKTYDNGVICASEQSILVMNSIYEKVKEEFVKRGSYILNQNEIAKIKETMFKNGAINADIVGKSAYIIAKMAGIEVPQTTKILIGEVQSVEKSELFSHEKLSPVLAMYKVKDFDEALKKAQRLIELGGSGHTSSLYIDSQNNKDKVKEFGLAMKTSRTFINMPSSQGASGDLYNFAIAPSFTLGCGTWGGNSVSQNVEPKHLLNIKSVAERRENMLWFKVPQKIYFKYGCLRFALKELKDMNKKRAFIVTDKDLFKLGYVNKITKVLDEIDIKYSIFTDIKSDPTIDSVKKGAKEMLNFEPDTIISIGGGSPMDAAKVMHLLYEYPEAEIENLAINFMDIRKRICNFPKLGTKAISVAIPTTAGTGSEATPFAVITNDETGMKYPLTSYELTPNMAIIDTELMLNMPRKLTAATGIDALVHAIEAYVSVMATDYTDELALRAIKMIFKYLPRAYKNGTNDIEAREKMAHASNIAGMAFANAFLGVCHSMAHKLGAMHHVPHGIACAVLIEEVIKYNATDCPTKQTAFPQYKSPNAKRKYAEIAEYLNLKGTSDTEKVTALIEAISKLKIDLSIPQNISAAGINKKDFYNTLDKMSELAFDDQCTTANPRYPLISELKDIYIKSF
# Description: (§1) Activity of ALDH proteins was measured by monitoring the oxidation of NADH at 340 nm at 30° C. The assay mixture (400 μL) contained 100 μM NADH in 100 mM Tris 1 mM DTT pH 7.5. The reaction was initiated by the addition of substrate. Kinetic parameters (kcat, KM) were determined by fitting the data using Microcal Origin to the equation: vo=vmax [S]/(KM+[S]), where v is the initial rate and [S] is the substrate concentration. Data are reported as mean±s.e. (n=3) unless otherwise noted with standard error derived from the nonlinear curve fitting. Error bars on graphs represent mean±s.d. (n=3). Error in kcat/KM is calculated by propagation of error from the individual kinetic parameters.
# (§2) To further explore the potential for expressing monofunctional aldehyde and alcohol dehydrogenases in host cells for the production of alcohols, various aldehyde and alcohol dehydrogenases were purified and isolated to investigate their in vitro kinetic behavior with various C4 and C2 substrates. In particular, the monofunctional aldehyde dehydrogenase identified in FIG. 3 above (GI 150018649, also referred to as ALDH16) was purified (FIG. 4A and FIG. 4B) and the in vitro kinetic behavior of a purified Strep-ALDH16 protein with various C4 and C2 substrates was tested.
# [2] = substrate: CC=O; test: as above; assay type: biochemical; settings: other: 100 μM NADH, 100 mM Tris, 1 mM DTT, pH 7.5, 30° C., mean±s.e. (n=3)
# Description: as §1, §2
# [3] = substrate: CCCC=O; test: as above; assay type: biochemical; settings: other: 100 μM NADH, 100 mM Tris, 1 mM DTT, pH 7.5, 30° C., mean±s.e. (n=3)
# Description: as §1, §2
# [4] = test system: butanol production pathway; test: Butanol and ethanol production in E. coli MC1.24 (quintuple KO) with bifunctional or monofunctional dehydrogenases (FIG. 5); assay type: cell-based; settings: E. coli MC1.24, FIG. 5
# Text: FIG. 5 illustrates genetically engineered improvement of a butanol production pathway composed of monofunctional aldehyde and alcohol dehydrogenases. The fuel titer of either butanol or ethanol in E. coli cells expressing the biosynthetic pathway shown in FIG. 6A with various particular alcohol and/or aldehyde dehydrogenases is shown. Specifically, E. coli MC1.24 (quintuple KO) was transformed with pT533-phaA.HBD, pBBR2-aceE.F.lpd and 1: pCWO.trc-ter-adhE2, 2: pCDF3-aldh16, 3: pCWori-ter-aldh16.CaADH, or 4: pCWO.trc-ter-aldh16.CaADH as indicated.
# . The cultures were grown at 37° C. in a rotary shaker (200 r.p.m.) and induced with IPTG (1.0 mM) at OD600=0.35-0.45. At this time, the growth temperature was reduced to 30° C., and the culture flasks were sealed with Parafilm M (Pechiney Plastic Packaging) to prevent product evaporation for aerobic cultures. Anaerobic cultures were sealed and the headspace was sparged with argon for 5 minutes immediately follow induction. Aerobic cultures were unsealed for 10 to 30 min every 24 h then resealed with Parafilm M, and additional glucose (1% (w/v)) was added 1 day post-induction. Samples were quantified after 3 d of cell culture.
# Samples (2 ml) were removed from cell culture and cleared of biomass by centrifugation at 20,817 g for 2 min using an Eppendorf 5417R centrifuge. The supernatant or cleared medium sample was then mixed in a 9:1 ratio with an aqueous solution containing the isobutanol internal standard (10,000 mg l^−1). These samples were then analyzed on a Trace GC Ultra (Thermo Scientific) using an HP-5MS column (0.25 mm×30 m, 0.25 μM film thickness, J & W Scientific). The oven program was as follows: 75° C. for 3 min, ramp to 300° C. at 45° C. min^−1, 300° C. for 1 min. n-Butanol was quantified by flame ionization detection (FID) (flow: 350 ml min^−1 air, 35 ml min^−1 H2 and 30 ml min^−1 helium). Samples containing n-butanol levels below 500 mg 1^−1 were requantified after extraction of the cleared medium sample or standard (500 μl) with toluene (500 μl) containing the isobutanol internal standard (100 mg 1^−1) using a Digital Vortex Mixer (Fisher) for 5 min set at 2,000. The organic layer was then quantified using the same GC parameters with a DSQII single-quadrupole mass spectrometer (Thermo Scientific) using single-ion monitoring (m/z 41 and 56) concurrent with full scan mode (m/z 35-80). Samples were quantified relative to a standard curve of 2, 4, 8, 16, 31, 63, 125, 250, 500 mg 1^−1 n-butanol for MS detection or 125, 250, 500, 1,000, 2,000, 4,000, 8,000 mg 1^−1 n-butanol for FID detection. Standard curves were prepared freshly during each run and normalized for injection volume using the internal isobutanol standard (100 or 1,000 mg 1^−1 for MS and FID, respectively). […]
molecule,measurement,setting,value
CC=O [acetaldehyde],kcat,"[1]; 100 μM NADH, 100 mM Tris, 1 mM DTT, pH 7.5, 30° C., mean±s.e. (n=3)",5.6 ± 0.1 s⁻¹
same,preference for acetaldehyde over butyraldehyde,[1]; from Table 4,1.7 fold
B1,Km,[2],4.5 ± 0.3 mM
same,Km,[3],4 ± 0.4 mM
same,kcat,[3],2.9 ± 0.1 s⁻¹
same,kcat/Km,[3],700 ± 20 M⁻¹ s⁻¹
B2,butanol production,[4],4.5 g/L
same,ethanol production,[4],3 g/L
